Patent US11015206B2, “Compositions and methods comprising sequences having hydroxyphenylpyruvate dioxygenase (HPPD) activity” (PIONEER HI-BRED INTERNATIONAL, INC., priority 2014, dated 2021)
Changes are numbered by the printed parent chain.

B1: R8-1973: Round 8, variant 1973 (SEQ ID NO:8), 26 amino acid substitutions relative to native maize HPPD (protein)
chain: MGPTPTATAAGAAVAAASAAEQAAFRLVGHRNFVRFNPRSDRFQTLAFHHVELWCADAASAAGRFSFALGVPLAARSDLSTGNSAHASLLLRSGSLSLLFTAPYAHGADAATAALPSFSAAAARRFAADHGLAVRAVALRVADAEDAFRASVAAGARPAFGPVDLGRGFRLAEVELYGDVVLRYVSYPDGAAGEPFLPGFEGVASPGAADLGLNRFDHIVGNVPELAPAAAYMAGFTGFHEFAEFTTEDVGTTESGLNSMALANNSENVLLPLNEPVHGTKRRSQIQTFLDHHGGPGVQHIALASDDVLRTLREMRARSAMGGFEFLPPPLSDYYDGVRKCAGDVLTEAQINECQELGVMVDRDDEGVLLQIFTKPVGDRPTFFLEIIQRIGCREKDEKGQEYQKGGCGGFGKGNFGQLFKSIEDYEKSLEKKRAAAAATAQGS
modifications: Zea mays variant form created by artificial means.
B2: P056028-G-06 (protein)
chain: B1 chain with L182M, P206Q, L211Y, I387L, R394M, K432A, R434Q
modifications: Zea mays variant form created by artificial means.
B3: P056028-G-08 (protein)
chain: B1 chain with N214S, E356K, R394M, K432A, R434Q
modifications: Zea mays variant form created by artificial means.
B4: P056028-G-07 (protein)
chain: B1 chain with P206Q, L211Y, N214S, E356R, R394M, K432A, R434Q
modifications: Zea mays variant form created by artificial means.
B5: SEQ ID NO 1 (protein)
chain: MGPTPTAAAAGAAVAAASAAEQAAFRLVGHRNFVRFNPRSDRFHTLAFHHVELWCADAASAAGRFSFGLGAPLAARSDLSTGNSAHASLLLRSGSLSFLFTAPYAHGADAATAALPSFSAAAARRFAADHGLAVRAVALRVADAEDAFRASVAAGARPAFGPVDLGRGFRLAEVELYGDVVLRYVSYPDGAAGEPFLPGFEGVASPGAADYGLSRFDHIVGNVPELAPAAAYFAGFTGFHEFAEFTTEDVGTAESGLNSMVLANNSENVLLPLNEPVHGTKRRSQIQTFLDHHGGPGVQHMALASDDVLRTLREMQARSAMGGFEFMAPPTSDYYDGVRRRAGDVLTEAQIKECQELGVLVDRDDQGVLLQIFTKPVGDRPTLFLEIIQRIGCMEKDEKGQEYQKGGCGGFGKGNFSQLFKSIEDYEKSLEAKQAAAAAAAQGS
modifications: Zea mays
B6: SEQ ID NO:78: improved shuffled variant of maize HPPD (protein)
chain: MGPTPTATAAGAAVAAASAAEQAAFRLVGHRNFVRFNPRSDRFHTLAFHHVELWCADAASAAGRFSFALGAPLAARSDLSTGNSAHASLLLRSGSLSFLFTAPYAHGADAATAALPSFSAAAARRFAADHGLAVRAVALRVADAEDAFRASVAAGARPAFGPVDLGRGFRLAEVELYGDVVLRYVSYPDGAAGEPFLPGFEGVASPGAADYGLSRFDHIVGNVPELAPAAAYFAGFTGFHEFAEFTTEDVGTAESGLNSMALANNSENVLLPLNEPVHGTKRRSQIQTFLDHHGGPGVQHIALASDDVLRTLREMQARSAMGGFEFLPPPPSDYYDGVRRCAGDVLTEAQINECQELGVMVDRDDQGVLLQIFTKPVGDRPTFFLEIIQRIGCMEKDEKGQEYQKGGCGGFGKGNFGQLFKSIEDYEKSLEAKQAAAAATAQGS
modifications: Zea mays variant form created by artificial means.
B7: R6-9075: shuffled maize HPPD variant 9075, SEQ ID NO:79; 9070 with R316 changed to Q (protein)
chain: B6 chain with H44Q, A71V, F98L, F233M, A253T, P331L
modifications: Zea mays variant form created by artificial means.
notes: 9070 with R316 changed to Q
B8: SEQ ID NO 2 (protein)
chain: B6 chain with H44Q, A71V, F98L, F233M, A253T, Q316R, P331L
modifications: Zea mays variant form created by artificial means.
B9: P056028-G-09 (protein)
chain: B1 chain with P158K, L211Y, N214S, K340R, R394V, K432A, R434Q
modifications: Zea mays variant form created by artificial means.

What was measured:
Assay type in all cases: biochemical, Z. mays
[1] = system: 4-hydroxyphenylpyruvate dioxygenase (HPPD); experiment: HPPD activity coupled assay with HGD; substrate saturation kinetic parameters (kcat, KM)
Procedure: Wild type and shuffled variant genes were cloned into pVER7062, a modified version of pET24a(+)(Novagen), which places six histidine residues at the N-terminus of the expressed protein. Vectors were electroporated into E. coli host strain BL21(DE3). Cells were grown at 30 C in rich medium such as 2×YT containing the selection antibiotic, kanamycin. At a density of about 0.6 OD600, IPTG was added to 0.2 mM, the temperature was reduced to 16 C and growth continued for another 24 hrs. Cells were harvested by centrifugation and stored at −80 C. Cell pellets were lysed in BPER (Pierce) protein extraction reagent containing 0.2 mg/ml lysozyme, 1 mM dithiothreitol, protease inhibitor cocktail (Sigma, bacterial cocktail) and endonuclease. Insoluble cellular debris was removed by centrifugation. HPPD protein was purified from the soluble protein solution by affinity chromatography on the nickel form of nitrilotriacetic acid (Ni-NTA) resin (Qiagen). Protein concentrations were determined by the Bradford method, as supplied by Bio-Rad.
HPPD catalyzes the conversion of 4-hydroxyphenylpyruvate (HPP) to homogentisate (FIG. 17). […] However, the product of the ensuing reaction in tyrosine metabolism, maleylacetoacetate, absorbs strongly at 320 nm. Furthermore, the enzyme catalyzing that reaction is also a dioxygenase having similar mechanism and buffer requirements as HPPD, making homogentisate dioxygenase (HGD) an ideal partner in a coupled assay, as shown.
The HDG gene from Pseudomonas aeruginosa (Amaya (2004) Arch Biochem Biophys 421, 135-142) was cloned into pVER7062 and electroporated into E. coli strain BL21(DE3). The enzyme was produced by methods similar to those described for HPPD. The purified enzyme has a KM for homogentisate of 23 μM and a kcat of 100/sec, properties highly suited for instantly converting the homogentisate produced by HPPD to maleylacetoacetate.
HPPD activity was measured by placing an aliquot (e.g., 6 μl) of the substrate HPP at 50-fold the desired final concentration into the wells of a low UV-absorbing assay plate. Reactions were started by adding a mixture (e.g., 294 μl) containing 25 mM Hepes, pH 7, 2 mM ascorbate, 10 μM FeSO4, 1 to 100 μM HPP, 50 nM HGD and 5 to 240 nM HPPD. Absorbance at 320 nm was monitored continuously in a plate-reading spectrophotometer (Spectramax, Molecular Devices).
The catalytic performance of wild-type HPPD and variants generated by shuffling was assessed by determining the substrate saturation kinetic parameters. The Michaelis-Menten kinetics protocol of the Spectramax software was customized for HPP concentrations ranging from 3.33 μM to 100 μM. Reaction rates were measured as described above for each concentration of HPP. The software returns values of KM and Vmax using the Lineweaver-Burke transformation of the Michaelis-Menten equation.

[2] = system: 4-hydroxyphenylpyruvate dioxygenase (HPPD); experiment: ON rate ratio: HPPD reaction rate with vs without inhibitor in the 70 to 90 second interval; conditions: for ON Rat. (ON ratio parameter): Megatable 2
Method in brief: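 Indicator of inhibitor on-rate: reaction velocity in the 70 to 90 second window with 4 μM inhibitor divided by that without. Reactions contained 100 μM HPP and 60 or 120 nM HPPD; slower binding gives a larger ratio.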

[3] = system: 4-hydroxyphenylpyruvate dioxygenase (HPPD); experiment: OFF rate ratio: release of inhibitor from pre-formed enzyme-inhibitor complex; conditions: for OFF Rat. (OFF ratio parameter): Megatable 2
Method in brief: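 Inhibitor release from pre-formed complex (enzyme 7.2 μM, inhibitor 8 μM, 1 h RT) tracked as accelerating HPPD activity at 320 nm over 12 min, coupled via 50 nM HGD with 100 μM HPP at pH 7. OFF rate ratio: steady-state velocity relative to uninhibited initial velocity.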

[4] = system: 4-hydroxyphenylpyruvate dioxygenase (HPPD); experiment: Insensitivity parameter (ON × OFF) and trait fitness (ON × OFF × kcat/KM or × kcat); set-up: key to ON × OFF / Insensitivity, mesotrione, ON × OFF / Insensitivity, tembotrione, ON × OFF / Insensitivity, topramezone, ON × OFF / Insensitivity, sulcotrione, ON × OFF / Insensitivity, isoxaflutole (DKN), ON × OFF: insensitivity = ON rate ratio × OFF rate ratio (surrogate for KD); conditions: for Fitness Fold vs Zm wt / Insensitivity parameter, ON × OFF / Insensitivity ON × OFF, Fold vs wt: mesotrione; for Insensitivity parameter, ON × OFF: Table 2; for Insensitivity ON × OFF, Fold vs wt: vs maize wild type; for ON × OFF (product of ON ratio and OFF ratio) / ON × OFF kcat (product of ON ratio, OFF ratio and kcat) / Fold vs. wt (ON × OFF versus wild-type SEQ ID NO:1) / Fold vs. wt (ON × OFF × kcat versus wild-type SEQ ID NO:1): Megatable 2; for Fold vs. wt (ON × OFF versus wild-type SEQ ID NO:1): fold of ON × OFF; for Fold vs. wt (ON × OFF × kcat versus wild-type SEQ ID NO:1): fold of ON × OFF × kcat
Method in brief: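 Trait fitness combines catalysis and insensitivity as kcat/KM × ON rate ratio × OFF rate ratio. The insensitivity parameter is the product of ON and OFF rate ratios, used in place of KD because the ON rate ratio is inverse.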

[5] = system: 4-hydroxyphenylpyruvate dioxygenase (HPPD); experiment: Estimate of kcat from initial rate at saturating hydroxyphenylpyruvate without inhibitor (ON rate ratio assay)
Method in brief: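 kcat was estimated from the initial reaction rate with known enzyme level (60 or 120 nM HPPD). Hydroxyphenylpyruvate was at a saturating 100 μM, with no inhibitor present.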

[6] = Table 2, E. coli purified proteins
[7] = Table 7, combinatorial variants
[8] = Table 7, tembotrione, combinatorial variants
[9] = Megatable 2, single substitutions, positions numbered per SEQ ID NO:1

Row | Molecule | kcat ([5]; Megatable 3, shuffled variants) [min⁻¹] | kcat [5, 7] [min⁻¹] | ON rate ratio [2, 8] | OFF rate ratio [3, 8] | ON × OFF ([4]; Megatable 3, shuffled variants) | ON × OFF × kcat ([4]; Megatable 3, shuffled variants) | ON × OFF [4, 8] | ON × OFF × kcat [4, 8] | other results
1 | B1 |  |  |  |  |  |  |  |  | Km [1, 6]: 2 µM; kcat [1, 6]: 70.8 min⁻¹; ON rate ratio ([2]; mesotrione): 0.73; OFF rate ratio ([3]; mesotrione): 1.00; Fitness Fold vs Zm wt [4]: 12.2; Insensitivity parameter, ON × OFF [4]: 0.73; Insensitivity ON × OFF, Fold vs wt [4]: 11.9
2 | B2 | 12 | 12 | 0.725 | 0.382 | 0.277 | 3.30 | 0.277 | 3.30 | 
3 | B3 | 11.8 | 11.8 | 0.737 | 0.379 | 0.279 | 3.29 | 0.279 | 3.29 | 
4 | B4 | 15.3 | 15.3 | 0.702 | 0.304 | 0.213 | 3.23 | 0.213 | 3.23 | 
5 | B5 |  |  |  |  |  |  |  |  | kcat [5, 9]: 210 min⁻¹; ON Rat. (ON ratio parameter) [2]: 0.17; OFF Rat. (OFF ratio parameter) [3]: 0.03; ON × OFF (product of ON ratio and OFF ratio) [4]: 0.0051; ON × OFF kcat (product of ON ratio, OFF ratio and kcat) [4]: 1.07; Fold vs. wt (ON × OFF versus wild-type SEQ ID NO:1) [4]: 1.00; Fold vs. wt (ON × OFF × kcat versus wild-type SEQ ID NO:1) [4]: 1.00
6 | B6 |  |  |  |  |  |  |  |  | kcat ([1]; text b374): about 220 min^−1; time span to reach the steady state (dissociation from inhibitor) ([3]; mesotrione, enzyme 240 nM): 80 s
7 | B7 |  |  |  |  |  |  |  |  | Km [1, 6]: 4 µM; kcat [1, 6]: 114 min⁻¹; ON rate ratio ([2]; mesotrione): 0.68; OFF rate ratio ([3]; mesotrione): 0.68; Fitness Fold vs Zm wt [4]: 6.4; Insensitivity parameter, ON × OFF [4]: 0.46; Insensitivity ON × OFF, Fold vs wt [4]: 7.6
8 | B8 |  |  |  |  |  |  |  |  | kcat [5, 9]: 34.2 min⁻¹; ON Rat. (ON ratio parameter) [2]: 0.74; OFF Rat. (OFF ratio parameter) [3]: 0.21; ON × OFF (product of ON ratio and OFF ratio) [4]: 0.15; ON × OFF kcat (product of ON ratio, OFF ratio and kcat) [4]: 5.25; Fold vs. wt (ON × OFF versus wild-type SEQ ID NO:1) [4]: 30.0; Fold vs. wt (ON × OFF × kcat versus wild-type SEQ ID NO:1) [4]: 4.90
9 | B9 | 15.8 | 15.8 | 0.716 | 0.385 | 0.275 | 4.37 | 0.275 | 4.37 | 
